Assays:
[1] = target: T1, SPRED1(EVH1), SPRED1(13–125), wild type (ITC) (human, UniProt Q7Z699 13-125); experiment: ITC
T1 chain: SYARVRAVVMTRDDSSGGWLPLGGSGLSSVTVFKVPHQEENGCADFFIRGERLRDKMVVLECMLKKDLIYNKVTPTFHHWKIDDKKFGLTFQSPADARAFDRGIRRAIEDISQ

[2] = target: KRAS4b(1–169), wild type, GMPPNP-bound (UniProt P01116-2 1-169); experiment: ITC; GMPPNP

Kd [1]: 260 nM | Kd [2]: 4000 nM
B1: NF1 isoform I (GRD containing additional 23 residues) (domain or fragment)
chain: DRFERLVELVTMMGDQGELPIAMALANVVPCSQWDELARVLVTLFDSRHLLYQLLWNMFSKEVELADSMQTLFRGNSLASKIMTFCFKVYGATYLQKLLDPLLRIVITSSDWQHVSFEVDPTRLEPSESLEENQRNLLQMTEKFFHAIISSSSEFPPQLRSVCHCLYQATCHSLLNKATVKEKKENKKSVVSQRFPQNSIGAVGSAMFLRFINPAIVSPYEAGILDKKPPPRIERGLKLMSKILQSIANHVLFTKEEHMRPFNDFVKSNFDAARRFFLDIASDCPTSDAVNHSLSFISDGNVLALHRLLWNNQEKIGQYLSSNRDHKAVGRRPFDKMATLLAYLGPPEH

— paper PMC7437355 (2020)
